Data: PMC4787769
Values joined by “and” are separate entries in the source; they are usually repeats but may differ in a detail not shown here. Identical values can stand only once. Like-named read-outs stand apart in the source and are kept apart here.

Key:
[1] = molecular target: KSHV LANA DNA binding domain, kLANA_(1008–1150) (KSHV); experiment: SEC
[2] = molecular target: KSHV LANA DNA binding domain, kLANA_(1008–1150) (KSHV); experiment: SAXS
[3] = molecular target: KSHV LANA DNA binding domain, kLANA_(1019–1150) (KSHV); experiment: SEC; gel filtration in the presence of 1 M NaCl
[4] = molecular target: KSHV LANA DNA binding domain, kLANA_(1019–1150) (KSHV); experiment: crystal structure
[5] = molecular target: MHV-68 LANA DNA binding domain, mLANA_(124–314) (MHV-68); experiment: SAXS
[6] = molecular target: MHV-68 LANA DNA binding domain, mLANA_(124–314) (MHV-68); experiment: SEC
[7] = molecular target: MHV-68 LANA DNA binding domain, mLANA_(124–314) (MHV-68); experiment: SAXS; remark: listed apart in the source
[8] = molecular target: kLANA_(1008–1150 (K1109E)) (KSHV); experiment: SAXS
[9] = molecular target: kLANA_(1008–1150 (K1109E)) (KSHV); experiment: SEC
[10] = molecular target: kLANA_(k1109E, A1121E) (KSHV); experiment: SEC
[11] = molecular target: kLANA_(k1109E, A1121E) (KSHV); experiment: SEC; remark: listed apart in the source
[12] = molecular target: mLANA DBD (Murine gammaherpesvirus 68 (MHV-68)) (UniProt O41974); experiment: ITC

KSHV LANA DNA binding domain, kLANA_(1008–1150) (domain or fragment)
stoichiometry N [1]: 2 and 4 | percent of the mixture present as octamer with two kLBS1–2 DNA [2]: 74% | stoichiometry N [2]: 8 and 4

KSHV LANA DNA binding domain, kLANA_(1019–1150) (domain or fragment)
stoichiometry N [3]: 2 | stoichiometry N [4]: 2 and 4

MHV-68 LANA DNA binding domain, mLANA_(124–314) (domain or fragment)
stoichiometry N [5]: 4 | stoichiometry N [6]: 2 and 4 | stoichiometry N [7]: 8

kLANA_(1008–1150 (K1109E)) (domain or fragment)
percent of species present as bent tetramer [8]: 20% | percent of species present as dimer [8]: < 80% | stoichiometry N [8]: 2 and 4 | stoichiometry N [9]: 2 and 4

kLANA_(k1109E, A1121E) (domain or fragment)
stoichiometry N [10]: 4 | stoichiometry N [11]: 2

kLBS1-2
Kd [12]: 71.7 nM
